Measured values from the nanobody polyreactivity screen of Harvey et al. (2022).

Assay: yeast display, Sf9 membrane polyspecificity reagent, FACS + sequencing; frameworks hold sequencing errors
Procedure, shortened: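 Galactose induction of a Saccharomyces cerevisiae BJ5465 synthetic nanobody display library ran 36–48 hours. The cells were then stained for 1 hour at 4 °C with 10% biotinylated, detergent-solubilized Sf9 membrane reagent, pulled down on streptavidin microbeads and FACS-sorted into low and high (top ~1%) gates on expression and reagent-binding fluorescence. Labels for polyreactivity follow the gate of origin.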

| Sequence | polyreactivity (PSR sort gate) |
| --- | --- |
| QVQLVESGGGLVQAGGSLRLSCAASGFTFEFNVMGWYRQAPGKERELVASIRWGSTSYADSVKGRFTISRDNAKNTVYLQMNSLKPEDTAVYYCAADRSTGLGDDDYWGQGTQVTVSS | low polyreactivity |
| QVQLVESGGGLVQAGGSLRISCAASGSTFSYYTMGWYRQAPGKERELVAAISRTGGSTYYADSVKGRFTISRDNAKNTVYLQMNSLKPEDTAVYYCAADWTRGSPGMDYWVQGTQVTVSS | high polyreactivity |
| QVQLVESGGGLVQAGGRLRLSCAASGGIFIKNAMGWYRQAPGKERELVAGISSGGNTYYADSVKGRFTISRDNAKNTVYLQMNSLKPEDTAVYYCAVRYYRRFGPLYDSWGQGTHVTVSS | low polyreactivity |
| QVQLVESGGGIVQAGGSLRLSCAASGSNFTAYDMGWYRPAPGKDRELVAALNVSAGTTYYADSVKGRFTISRDHAKNTVYLQMNSLKPEDTAVYYCATYRSPTPYTRENIYAYWGQGTLVTVSS | low polyreactivity |
| QDQLVESGGGLVQARVSLRLSCAASGLIFRRYAMGWYRQAPGKEREFVAAITVSGGRTYYADSVKGRFTISRDNAKNTVYLQMNSLKQEDTAVYYCDAHGYGDNRNKYFYWGLGTQVTVSS | high polyreactivity |
| QVQLVESGGGLVQAGGSLRLSCAASGRIFGSYTMGWYRQAPGKERELVAAISFSGARTRYADSVKGRFTISRDNANNTVYLQMNSLKPEDTAVYYCAARFTGGKYDYWGQGTQVTVSS | high polyreactivity |
| QVQLVESGGGLVQAGGSLRLRCAASGSIIVPNAMGWYRQAPGKERELVAAISGRGGSTYYADSEKGRFTISRDNAKNTVSLQMKSLKPEDTAVYYCAAQDTYHSYGLYSWGQGTQVTVSS | low polyreactivity |
| QVQLVESGGGLVQAGGSLRLSCAASGSIFGGYAMGWYRQAPGKERELVAAISSGGSTYYADSVKGRFTISRDNAKNTVYLQMNSLKPEDTAVYYCATSTFAYRRNSYYYTRPRFGYWGQGTQVTVSS | high polyreactivity |
| QVQLVESGGGLVQAGGSLRLSCAAAGLIFSAYAMGWYRQAPGKEREVVAAISRSGGITYYADSVKGRFTISRDNAKNTVYLQMISLKPEDTAVYYCNARWYDPTLKFGYWGQGTQVTVSS | high polyreactivity |
| QVQLVESGGGLVQAGGSLRLSCAASGFIFPGYAMGWYRQAPGKEREFVAVISRSGVRTYYADSVKGRFTISRDNAKNTVYLQMNSLKPEDTAVYYCAARYYSTDLEYWGQGTQVTVSS | low polyreactivity |
| QVQLVESGGGLVQAGGSLRLSCAASGRIIYVNAMGWYRQAPGKERELVAAISSRGGTTYYADSVKGRFTISRDNAKNTVYLQMNSLKPEDTAVYYCNAGRVRHGNDYWGQGTQVTVSS | high polyreactivity |
| QVQLVESGGGLVQAGGSLRLSCAASGFIFSVYTMGWYRQAPGKERELVASITWSGGDTYYADSVKGRFTISRDNAKNTVYLQMNSLKPEDTAVYYCNVDAGFHDSYHAWNLRYDYWGQGTQVTVSS | low polyreactivity |
| QVQLVESGGGLVQAGASLRLSCAASGRTLTGYAMGWYRQAPGKERELVAAITWRDSTYYADSVKGRFTISRDNAKNTVYLQMNSLKPEDTAVYYCNADNATYFVYEFNYWGQGTQVTVSS | low polyreactivity |
| QVQLVESGGGLVQAGGSLRLSCAASGSIFNVYVMGWYRQAPGKERELVASITWTTGSTYADSVKGRFTISRDNAKNTVYLQMNSLKPEDTAVYYCNAEFPEDTSDDYWGQGTQVTVSS | low polyreactivity |
| QVQLVESGGGLVQAGGSLRLSCAASGRTFSTYAMGWYRQAPGKERELVAAITRRGGSTYYADSVKGRFTISRDNAKNTVYLQMNSLKPEDTAVYYCARENPGDSYYDYWGQGTQVTVSS | low polyreactivity |
| QVQLVESGRGVVQAGGSLRLSRADSGIIFLDHAMGWYRQAPGKEWELVAGINGGGRTDYADSVQGRFTISRDNAKNTVYLQMNSLTPEDTAVYYCAAESSWYSPDVNFWGQGTQVTVSS | low polyreactivity |
| QVQLVESGGGLVQAGGSLRLSCAASGSTFAWYTMGWYRQAPGKERELVASITSTGSTNYADSVKGRFTISRDNAKNTVYLQMNSLKPEDTAVYYCAAAVRAWYRRLYDYWGQGTQVTVSS | high polyreactivity |
| QVQLVESGGGLDQAGGSLRLSCAASGRIFRYYAMGWYRQAPGKERELVAAISTSGDTTYYADSVKGRFTISRDNAKNTVYLQMNSLKPEDTAVYYCAADTYYYLVKYGSYDYWGQGTQVTVSS | high polyreactivity |
| QVQLVESGGGLVQAGGSLRLSCAASGSIFAYNAMGWYRQAPGKEREFVAVITRSDDSTYADSVNGRFTISRDNAKNTVSLQMNSLKPEDTAVYYCAALQFVIDGGYRGDYWGQGTQVTVSS | low polyreactivity |
| QVQLVESGGGLVQAGGSLRLSCAASGFTFRQNAKGWYRQAPGKERELVAVITKSAGSTYYADSVKGRFTISRDNAKNTVYLQMNSLKPEDTAVFYCNKRQRFVSSFRRSQGIGWEDDYWGQGTQVTVSS | low polyreactivity |
| QVQLVESGGGLVQAGGSLRLRCAASGRTFRVYAMGWYRQAPGKERELVATITSSGGSTYYADSVKGRFTISRDNAKNTVYLQMNSLKPEDTAVYYCNVSVYNNYDSSYYYWGQGTQVTVSS | low polyreactivity |
| QVQLVESGGGLVQAGGSLRLSCAASGRIFVTNDMGWYRQAPGKETELVAAINWNGDSTNYADSVKGRFTISRDNAKNTVYLQLNSLKPEDTAVYYCAAGWFTRDTLAGYDYWGKGTQVTVSS | low polyreactivity |
